# Columns and labels:
# [1] = target: Mouse P-gp-ECL13&4-h19 (mouse) (UniProt P21447); test: flow cytometry on cells; apparent Kd; HeLa cells expressing the P-gp variant (300,000 cells/assay) stained with UIC2 at 0.01 to 3 µg per 100,000 cells for 30 min at 37 °C; GraphPad Prism
# [2] = target: Mouse P-gp-ECL1&4-h18 (mouse) (UniProt P21447); test: as above
# [3] = target: Mouse P-gp-ECL13&4-h19 (mouse) (UniProt P21447); test: flow cytometry on cells; UIC2 shift assay: HeLa cells incubated 5 min at 37 °C with DMSO or 20 µM cyclosporine A before UIC2 at saturated concentration (3 µg/100,000 cells), 30 min; FITC-labeled anti-mouse secondary antibody
# [4] = target: Mouse P-gp-ECL1&4-h18 (mouse) (UniProt P21447); test: as above
substance,measurement,setting,value
UIC2 monoclonal antibody,Kd,[1],5.1 nM
same,Kd,[2],11.7 nM
same,fold increase of UIC2 binding after 20 µM cyclosporine A against DMSO,[3],1.2 to 1.4 fold
same,fold increase of UIC2 binding after 20 µM cyclosporine A against DMSO,[4],1.4 to 1.7 fold
